Laboratory results from patent US20160046944, “APTAMER TO IL-17 AND USE THEREOF” (THE UNIVERSITY OF TOKYO, published 2016).

Biological target: T1, IL-17 (IL-17A) (Homo sapiens, UniProt Q16552 Q16552:24-155)
T1 sequence: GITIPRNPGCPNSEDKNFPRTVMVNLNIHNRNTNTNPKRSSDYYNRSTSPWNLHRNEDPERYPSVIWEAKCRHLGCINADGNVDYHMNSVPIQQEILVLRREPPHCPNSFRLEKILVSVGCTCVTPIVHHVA
Experiment: cell_activity; IL-6 release (ELISA), NIH3T3
Settings: chain copies: 2
Protocol: First, human IL-17 and the aptamer produced in Example 1-2 were pre-incubated at 37° C. for 30 min, and added to NIH3T3 cell (ATCC, CRL1658) together with mouse TNFα (2 ng/mL). Then, after incubation for 24 hr, the culture supernatant was collected, and the production amount of IL-6 was measured by ELISA method described below. The IL-17 inhibitory action of each aptamer was determined from the production amount of IL-6. For comparison with the aptamer of the present invention, a conventionally-known aptamer (aptamer No. 50) against IL-17 was used.
ELISA method for verifying IL-17 inhibitory action of aptamer: A microtiter plate for ELISA was coated with rat anti-mouse IL-6 antibody (BD Biosciences, 2 μg/mL; 100 μL/well) diluted with PBS, and incubated at 4° C. overnight. The next day, the microtiter plate was washed 3 times with PBS/0.05% Tween 20, and applied blocking with PBS/1% BSA (200 μL/well) at room temperature for 2 hr. Then, the plate was washed 3 times with PBS/0.05% Tween 20. Recombinant mouse IL-6 (BD Biosciences; 100 μL/well) serially diluted with PBS/1% BSA/0.05% Tween 20 or culture supernatants (100 μL/well) were added to the plate. […] After 15 min, aqueous sodium hydroxide solution (2N: 50 μL/well) was added to stop the reaction, and the plate was read on a microtiter reader (Bio-Rad) by using a 405 nm filter.

B1: aptamer No. 52 (mixed)
mixed: GGGUAGCCGGAGGAGTCAGTAAUCGGUACCC
modifications: g(M)g(M)g(M)u(M)Ag(S)c(M)c(M)Gg(M)a(F)gg(M)a(M)g(S)Tc(F)a(F)gTa(M)a(M)u(M)c(M)g(M)g(M)u(F)a(M)CCC
IC50: 1.11 nM
